Biological target: TonB_(ΔTMD) L194C labeled with BODIPY FL (Escherichia coli) (UniProt P02929)
Assay: fluorescence polarisation

BtuB with bound colicin E3 receptor-binding fragment (ColE3R) (from UniProt P06129 21-614; P00646 1-551) (complex)
Kd: 1500 nM

— publication PMC3630801
